Reference: paper PMC6550527, “Evolution of Superinfection Immunity in Cluster A Mycobacteriophages”

T1: RepTrixie immunity repressor (Mycobacteriophage Trixie, UniProt G1JV33 1-192)
T1 sequence: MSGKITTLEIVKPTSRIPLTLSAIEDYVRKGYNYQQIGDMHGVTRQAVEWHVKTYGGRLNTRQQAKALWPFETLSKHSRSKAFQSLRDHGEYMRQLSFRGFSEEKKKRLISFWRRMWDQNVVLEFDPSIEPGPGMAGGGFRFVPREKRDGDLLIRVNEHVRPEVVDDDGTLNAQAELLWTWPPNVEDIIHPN

B1: Trixie stoperator 30-bp (dsDNA)
DNA 1: TGAGCAGTACTTGACATTCACCAGGTTGGG
DNA 2: CCCAACCTGGTGAATGTCAAGTACTGCTCA
B2: RedRock stoperator 30-bp (dsDNA)
DNA 1: TAAGGCGAACTTGACATCCACCGGGTTGGG
DNA 2: CCCAACCCGGTGGATGTCAAGTTCGCCTTA

Biological target: T1, RepTrixie immunity repressor
Experiment: EMSA; EMSA on 8% polyacrylamide gel, serially diluted Rep with 5'-32P 30-bp dsDNA; binding buffer and temperature not given (ref. 54); protein storage buffer 50 mM Tris pH 8.0, 150 mM NaCl, 0.1 mM EDTA, 0.1 mM DTT, 50% glycerol
Settings: protein: recombinant; chain copies: 2; label: 5' 32P; blunt

| Binder | Kd [nM] |
| --- | --- |
| B1 | ~6.48 |
| B2 | ~6.48 |
